Assay results as given in patent US20190284262A1 (Memorial Sloan Kettering, published 2019).

B1: EXT017-21 scFv phage clone (scFv)
scFv: SYELTQPPSVSVAPGQTASMTCGGNNIGSKSVHWYQQKPSQAPVMVVHDDSERPSGIPERISGSKSGNTATLTISRVEAGDEADYYCQVWDSSSDHVIFGGGTKLTVLGSRGGGGSGGGGSGGGGSLEMAQVQLVQSGAEVKKPGASVKVSCKASGYTFTNYYIHWVRQAPGQGLEWMGIIRPSGGITNYAQKFQGRVSMTRDTSTSTVYMELSSLRSEDTAVYYCARSWMSDSYYDGWGQGTLVTVSSTSGQAGQHHHHHHGAYPYDVPDYAS
notes: also called phage clone #21
B2: #29 (scFv)
scFv (VL-linker-VH-His/HA tag): QSVLTQPPSVSAAPRQKVTISCSGSSSNIGNNYVSWYQQLPGTAPKLLIYDDNKRPSGIPDRFSGSKSGTSATLGITGLQTGDEADYYCGTWDSSLSAVVFGGGTKLTVLGSRGGGGSGGGGSGGGGSLEMAQVQLVQSGTEVKRAGASVKVSCKASGYTFTNYYMHWVRQAPGQGLEWMGIINPSIGSTNYAQKFQGRVTMTRDTSTSTVFMELSSLRSDDTAVYYCARSFGDSDGADSWGQGTLVTVSSTSGQAGQHHHHHHGAYPYDVPDYAS
notes: also called EXT017-29; EXT017-29 scFv phage clone
B3: EXT017-28 scFv phage clone (scFv)
scFv: QSVLTQPPSVSGAPGQRVTISCTGSSSNIGAGYDVHWYQQLPGTAPKLLIYGNSDRPSGVPDRFSGSKSGTSASLAITGLQAEDEADYYCQSYDSSLSGYVFGTGTKVTVLGSRGGGGSGGGGSGGGGSLEMAQMQLVQSGAEVKKPGSSVKVSCKASGGTFSTYAISWVRQAPGQGLEWMGGIIPIFGTANYAQKFQGRVTITADKSTSTAYMEVRNLRSEDTAVYYCARAEYVYGEYDQWGQGTLVTVSSTSGQAGQHHHHHHGAYPYDVPDYAS
notes: full-length scFv with His+HA tags; also called EXT017-28 phage; phage clone #28
B4: #55 (scFv)
scFv (VL-linker-VH-His/HA tag): QSALTQPASVSGSPGQSITISCTGPTSDFNDYLFVSWYQQHPGKAPKLILYDVTHRPSGVSGRFSGSKSASTASLTISGLQAEDEADYFCGSKTGRTTYVFGTGTKVTVLGSRGGGGSGGGGSGGGGSLEMAQVQLVQSGAEVKKPGASVKVSCKASGYTFDNFGISWVRQAPGQGLEWMGWINTYDGYTNYVEKLQGRVTMTTDTSTGTAYMELRGLRSDDTAVYYCARSVPHQISYGDLWGQGTLVTVSSTSGQAGQHHHHHHGAYPYDVPDYAS
notes: also called EXT017-55; EXT017-55 scFv phage clone
B5: EXT017-54 scFv phage clone (scFv)
scFv: QAVLTQPPSLSGGPRQRVTISCSGSTSNIGKNGVSWYQQLPGKAPKLLIYNDHLLSSGVSDRFSGSKSGTSASLAISGLQSDDEADYYCATWDDTLDLPLFGGGTKVTVLGSRGGGGSGGGGSGGGGSLEMAQMQLVQSGAEVEKPGASVKLSCKASGGTFSSYAISWVRQAPGQGLEWMGGIIPIFGTANYAQKFQGRVTITADESTSTAYMELSSLRSEDTAVYYCARPSYYSIKSAWDHWGQGTLVTVSSTSGQAGQHHHHHHGAYPYDVPDYAS
notes: full-length scFv with His+HA tags; also called EXT017-54 phage
B6: EXT017-32 scFv phage clone (scFv)
scFv: QSVLTQPPSVSVAPGKTARITCGGNNIGSKSVHWYQQKPGQAPVLVIYYDSDRPSGIPERFSGSNSGNTATLTISRVEAGDEADYYCQVWDSSSDHYVFGTGTKVTVLGSRGGGGSGGGGSGGGGSLEMAEVQLVESGGGVVQPGRSLRLSCAASGFTFNNHAMHWVRQAPGKGLEWVAVISFDGDDKFYADSVKGRFTISRDNSRNTLFLQMNNLRPEDTAVYYCSRDPYHFASGSYSYFDYWGQGTLVTVSSTSGQAGQHHHHHHGAYPYDVPDYAS
notes: also called EXT017-32 phage; phage clone #32
B7: #25 (scFv)
scFv (VL-linker-VH-His/HA tag): QSVLTQPPSVSAAPGQKVTISCSGSSSNIGNNYVSWYQFLPGTAPKLLIYDNNQRPSGIPDRFSGFKSGTSATLDITGLQTGDEADYYCGTWDNSLSAAVFGRGTKLTVLGSRGGGGSGGGGSGGGGSLEMAQMQLVQSGTEVKRAGASVKVSCKASGYTFTNYYMHWVRQAPGQGLEWMGIINPSGGSTTYAQKFQGRVTMTRDTSTSTVYMELSDLGSEDTAVYYCARSWSKTEGSDRWGQGTLVTVSSTSGQAGQHHHHHHGAYPYDVPDYAS
notes: also called EXT017-25; EXT017-25 scFv phage clone
B8: #34 (scFv)
scFv (VL-linker-VH-His/HA tag): QSALTQPPSASGSPGQSVTISCTGTSSDVGAYNYVSWYQHYPGKAPKLMIYEVSERPSGVPDRFSGSKSGNTASLTVSGLQAEDEADYFCSSYAGSNNFVFGTGTKVTVLGSRGGGGSGGGGSGGGGSLEMAEVQLVQSGAEVKKPGSSVKVSCKASGGTFSSYAISWVRQAPGQGLEWMGRIIPILGIANYAQKFQGRVTITADKSSSTAYMALSSLTSEDTAVYYCARGGDYVESWFDPWGQGTLVTVSSTSGQAGQHHHHHHGAYPYDVPDYAS
notes: also called EXT017-34; EXT017-34 scFv phage clone

Tests used:
[1] = target: T1, T2+EW (Homo sapiens, UniProt A*02:01); assay: flow cytometry, phage on T2 + EW peptide; secondary only 113, unstained 94.7
T1 construct: on the surface of T2 cells; irrelevant control peptide; also called EW peptide/HLA-A*02:01 complex on T2 cells; T2 pulsed with EW peptide

[2] = target: T2, HLA-A*02:01 on T2 cells alone (no peptide added) (human); assay: flow cytometry, phage on T2 cells
T2 construct: TAP-deficient T2 cells without pulsed peptide; negative control target, and the HLA molecule whose stabilisation by peptides is read in the T2 stabilization assay; also called HLA-A*02 molecule; HLA-A2 molecule

[3] = target: T2, HLA-A*02:01 on T2 cells alone (no …); assay: flow cytometry, phage on T2 without peptide; secondary only 121, unstained 106
[4] = target: T3, Foxp3-7 peptide/HLA-A*02:01 complex on the cell surface (human); assay: flow cytometry, phage on T2 + Foxp3-7 peptide; secondary only 104, unstained 81.7
T3 construct: also called Foxp3-7/HLA-A2 complex

[5] = target: T3, Foxp3-7 peptide/HLA-A*02:01 complex on …; assay: flow cytometry, phage on T2 + Foxp3-7 peptide; secondary only 133, unstained 103
[6] = target: T2, HLA-A*02:01 on T2 cells alone (no …); assay: flow cytometry, phage on T2 without peptide; secondary only 100, unstained 99.5
[7] = target: T4, R3 (RHAMM-R3) peptide/HLA-A*02:01 complex on T2 cells (human); assay: flow cytometry, phage on T2 + R3 peptide (as the table names the samples); secondary only 109, unstained 80.9
T4 construct: Control target of the phage staining of T2 cells; also called T2 cells pulsed with R3 peptide; RHAMM 3 (R3)

[8] = target: T3, Foxp3-7 peptide/HLA-A*02:01 complex on …; assay: flow cytometry, phage on T2 + Foxp3-7 peptide; secondary only 116, unstained 93.8
[9] = target: T4, R3 (RHAMM-R3) peptide/HLA-A*02:01 …; assay: flow cytometry, phage on T2 + R3 peptide; secondary only 123, unstained 99.8
[10] = target: T2, HLA-A*02:01 on T2 cells alone (no …); assay: flow cytometry, phage on T2 without peptide
[11] = target: T2, HLA-A*02:01 on T2 cells alone (no …); assay: flow cytometry, phage on T2 without peptide; secondary only 320, unstained 91.4
[12] = target: T1, T2+EW; assay: flow cytometry, phage on T2 + EW peptide; secondary only 310, unstained 93
[13] = target: T3, Foxp3-7 peptide/HLA-A*02:01 complex on …; assay: flow cytometry, phage on T2 + Foxp3-7 peptide; secondary only 318, unstained 95.8
[14] = target: T2, HLA-A*02:01 on T2 cells alone (no …); assay: flow cytometry, phage on T2 cells, no peptide
[15] = target: T5, 017-mut4 peptide (…)/HLA-A*02:01 complex on T2 cells (human); assay: flow cytometry, phage on peptide-loaded T2 cells
T5 construct: Alanine mutant at position 4

[16] = target: T6, 017-mut5 peptide (…)/HLA-A*02:01 complex on T2 cells (human); assay: flow cytometry, phage on peptide-loaded T2 cells
T6 construct: Alanine mutant at position 5

[17] = target: T7, 017-mut3 peptide (…)/HLA-A*02:01 complex on T2 cells (human); assay: flow cytometry, phage on peptide-loaded T2 cells
T7 construct: Alanine mutant at position 3

[18] = target: T8, 017-mut8 peptide (…)/HLA-A*02:01 complex on T2 cells (human); assay: flow cytometry, phage on peptide-loaded T2 cells
T8 construct: Alanine mutant at position 8; also called TLI-A8

[19] = target: T9, 017-mut2 peptide (…)/HLA-A*02:01 complex on T2 cells (human); assay: flow cytometry, phage on peptide-loaded T2 cells
T9 construct: Alanine mutant at position 2, the anchor position; the peptide may load poorly onto HLA-A2; also called EXT017-mut2

[20] = target: T10, 017-mut9 peptide (…)/HLA-A*02:01 complex on T2 cells (human); assay: flow cytometry, phage on peptide-loaded T2 cells
T10 construct: Alanine mutant at position 9

[21] = target: T11, 017-mut7 peptide (…)/HLA-A*02:01 complex on T2 cells (human); assay: flow cytometry, phage on peptide-loaded T2 cells
T11 construct: Alanine mutant at position 7

[22] = target: T3, Foxp3-7 peptide/HLA-A*02:01 complex on …; assay: flow cytometry, phage on peptide-loaded T2 cells
[23] = target: T12, 017-mut1 peptide (…)/HLA-A*02:01 complex on T2 cells (human); assay: flow cytometry, phage on peptide-loaded T2 cells
T12 construct: Alanine mutant of Foxp3-7 at position 1, pulsed onto T2 cells; also called EXT017-mut1

| Binder | binding result [2] | Median:FITC-A [3] | Median:FITC-A [4] | Median:FITC-A [7] | Median:FITC-A [8] | Median:FITC-A [9] | binding result [10] | Median:FITC-A [11] | Median:FITC-A [12] | Median:FITC-A [13] | MFI [14] | MFI [16] | MFI [17] | MFI [18] | MFI [19] | MFI [20] | MFI [21] | MFI [22] | MFI [23] | further results |
| --- | --- | --- | --- | --- | --- | --- | --- | --- | --- | --- | --- | --- | --- | --- | --- | --- | --- | --- | --- | --- |
| B1 | no binding | 147 | 2220 | 123 | 428 | 143 |  |  |  |  |  |  |  |  |  |  |  |  |  | Median:FITC-A [1]: 143; Median:FITC-A [5]: 1550; Median:FITC-A [6]: 138 |
| B2 |  |  |  |  |  |  | no binding | 369 | 359 | 1010 |  |  |  |  |  |  |  |  |  |  |
| B3 | no binding | 144 | 2790 | 118 | 873 | 140 |  | 353 | 338 | 1740 | 93.9 | 107 | 13400 | 27500 | 102 | 5890 | 96.4 | 39500 | 20100 | MFI [15]: 108 |
| B4 |  |  |  |  |  |  | no binding | 389 | 391 |  |  |  |  |  |  |  |  |  |  |  |
| B5 |  |  | 4370 | 122 |  |  | no binding | 343 | 364 | 732 | 89.9 | 91.2 | 7780 | 5850 | 94.7 | 3540 | 91.1 | 30400 | 23500 |  |
| B6 | no binding | 138 | 3840 | 123 | 4070 | 136 |  | 356 | 357 | 1640 | 91.8 | 2710 | 21000 | 96.7 | 103 | 93.6 | 99.6 | 27500 | 15100 | MFI [15]: 20800 |
| B7 |  |  |  |  |  |  | no binding | 386 | 375 | 1030 |  |  |  |  |  |  |  |  |  |  |
| B8 |  |  |  |  |  |  | no binding | 361 | 386 | 1050 |  |  |  |  |  |  |  |  |  |  |
